Data as given in paper PMC9457993.
“And” between values parts separate entries of the source, which are not always exact repeats. Equal values may be shown once.

Assays:
Liraglutide [1] = experiment: SEC-MALS; HPLC-UV-dRI-MALS, Shodex Protein KW-802.5; mobile phase 1 g/L L-Arginine: Acetonitrile: acetic acid, 35:50:15 (results say 30% acetonitrile), isocratic 0.5 mL/min; Liraglutide FDF Lot #33387-18 and Saxenda Lot #JP54138, 6 mg/mL
Liraglutide [2] = experiment: AF4-MALS (asymmetrical flow field-flow fractionation with UV, fluorescence, dRI and MALS detection); Liraglutide 6 mg/mL (API resuspended in water or formulation, FDF, Victoza, Saxenda), 30 uL injected; formulation buffer (disodium phosphate dihydrate, propylene glycol, phenol, water) as mobile phase; PES membrane 1 kDa cutoff; molar mass by MALS with dRI; n = 3
Liraglutide [3] = experiment: AF4-MALS (asymmetrical flow field-flow fractionation with UV, fluorescence, dRI and MALS detection); thermally stressed, aggregated API (APIaggr), 3 mg/mL in formulation, 60 uL injected; formulation buffer as mobile phase
Liraglutide [4] = experiment: as above; remark: listed apart in the source

relative abundance of monomer (Liraglutide [1]): > 99.5%
stoichiometry N (Liraglutide [1]): 2 and 4
stoichiometry N (Liraglutide [2]): 5.2 units
stoichiometry N (Liraglutide [3]): > 20 units
stoichiometry N (Liraglutide [4]): 20 units
Substance: Liraglutide (peptide)
